Test results reported in US8846873B2, “Antibodies directed to GPNMB and uses thereof” (Celldex Therapeutics, Inc., priority 2004, dated 2014).

Assays:
GPNMB = target: T1, GPNMB (Homo sapiens, UniProt Q14956); assay: BiaCore 2000 biosensor binding of hybridoma supernatant mAb to GPNMB
T1 construct: made in house; host or cells: HEK 293
T1 sequence (Q14956 23-492): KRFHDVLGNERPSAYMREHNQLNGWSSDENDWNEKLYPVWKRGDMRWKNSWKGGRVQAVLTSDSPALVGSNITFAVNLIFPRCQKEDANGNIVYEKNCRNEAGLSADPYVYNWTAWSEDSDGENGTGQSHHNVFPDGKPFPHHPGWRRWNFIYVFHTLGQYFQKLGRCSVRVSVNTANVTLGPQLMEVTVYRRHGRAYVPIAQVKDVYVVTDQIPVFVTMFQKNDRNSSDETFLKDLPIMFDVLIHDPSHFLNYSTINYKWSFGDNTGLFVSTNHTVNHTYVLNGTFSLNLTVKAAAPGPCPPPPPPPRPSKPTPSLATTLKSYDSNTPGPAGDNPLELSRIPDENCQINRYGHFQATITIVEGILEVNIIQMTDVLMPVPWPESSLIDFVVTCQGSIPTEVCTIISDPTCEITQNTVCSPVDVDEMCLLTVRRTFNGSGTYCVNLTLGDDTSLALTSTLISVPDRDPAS
Description: Certain Hybridoma cell supernatants (29) were analyzed for binding to GPNMB by BiaCore® 2000 biosensor equipped with a research-grade CMS sensor chip. A 1:25 dilution of cell supernatant was passed over a protein A surface for 5 min followed by washing the surface for 10 mins. Subsequently, GPNMB was injected for 90 sec. over the surface at a concentration of 880 nM followed by dissociation. Double-referenced binding data were obtained by subtracting the signal from a control flow cell and subtracting the baseline drift of a buffer injected just prior to the antigen injection. GPNMB binding ddata for each mAb was normalized for the amount of mAb captured on each surface. Normalized, drift corrected responses were also measured. The sensorgrams were fit to a simple 1:1 kinetic model.

melanoma cell lines = assay: Clonogenic assay with 1.15.1-AE; assay type: cell-based, human; settings: various concentrations
Description: Melanoma cell lines were plated onto flat bottom 96-well tissue culture plates (Becton Dickinson, Franklin Lakes, N.J., USA). On day 2 or when cells reach ˜25% confluency, various concentrations of unconjugated and Auristatin E-conjugated 1.15.1 were added to cells. MAb 2.6.2-AE was also used as a conjugated isotype control in this study. On day 5, the cells were trypsinized, transferred to 6-well tissue culture plates and incubated at 37° C. Plates were examined daily. On days 8-10, all plates were Giemsa stained and colonies on the plates were counted.

SK-Mel-2 cells [1] = assay: Cell cycle analysis (BrdU / propidium iodide flow cytometry); assay type: cell-based, human; settings: SK-Mel-2, 24 hour, 1000 ng/mL
Description: (§1) Briefly, cells were pulsed at the indicated times with 30 μM of bromodeoxyuridine (BrdU, Sigma) for 30 min, harvested, fixed and permeabilized in methanol. Nascent DNA synthesis was detected by anti-bromodeoxyuridine-FITC (BD Biosciences, San Jose, Calif.) staining. Total DNA content was detected using propidium iodide (PI, Sigma). For apoptosis analysis, cells were treated as above and labeled with Annexin V-FITC followed by propidium iodide exclusion using the Annexin V-FITC Apoptosis Detection kit I (BD PharMingen, San Diego, Calif.) according to the manufacturer's protocols. Flow cytometry (as described in the previous Example) was used to assay both cell cycle and apoptosis studies.
(§2) DNA synthesis and cell cycle progression were determined by flow cytometry (Table 52).

TK-10 cells = assay: as above; assay type: cell-based, human; settings: TK-10, 24 hour, 1000 ng/mL
Description: as §1, §2

SK-Mel-2 cells [2] = assay: Flow cytometry of CR011 binding to cell surface CG56972/GPNMB; set-up: species or system human; settings: SK-MEL-2, positive control
Description: (§3) Flow Cytometry: Quantitative analysis of GPNMB expression on the cell surface of cell lines was determined by flow cytometry. […] Cells were fixed in 1% paraformaldehyde/PBS and examined on a Becton Dickinson FACSCalibur flow cytometer. Data analysis was performed with Becton Dickinson Cell Quest software version 3.3 and the geometric mean fluorescence intensity ratio (GMR) was determined for each cell type.
as §3, with “CG56972” for “GPNMB”, “the” for “the cell”, “cytometry (FACS).” for “cytometry.”

[3] = tested on: CG56972-expressing cancer cell lines; assay: Growth of CG56972-expressing cancer cell lines with naked CR011 or CR011 plus saporin-conjugated secondary antibody; assay type: cell-based; settings: for effect on CG56972 expressing cells / growth, naked antibody: used directly
Source text: Fully human monoclonal antibodies (mAb)-IgG2 to CG56972/GPNMB, an antigen predominantly found on the surface of melanoma and brain tumor cells, were generated. The naked CR0111gG2 mAb (mAb 1.15) had no effect on CG56972 expressing cells either in vitro or in vivo. Thus we examined whether isotype switching from an IgG2 to an IgG1 might enable the mAb to kill human melanoma cells through ADCC effector functions.

SF-268 = assay: Flow cytometry (FACS) of CR011 surface staining; assay type: binding, human
Description: as §3, with “CG56972” for “GPNMB”, “the” for “the cell”, “cytometry (FACS).” for “cytometry.”

SF-539 = assay: Flow cytometry (FACS) of CR011 surface staining; assay type: binding, human
Description: as §3, with “CG56972” for “GPNMB”, “the” for “the cell”, “cytometry (FACS).” for “cytometry.”

SNB-78 = assay: Flow cytometry (FACS) of CR011 surface staining; assay type: binding, human
Description: as §3, with “CG56972” for “GPNMB”, “the” for “the cell”, “cytometry (FACS).” for “cytometry.”

U-118-MG = assay: Flow cytometry (FACS) of CR011 surface staining; assay type: binding, human
Description: as §3, with “CG56972” for “GPNMB”, “the” for “the cell”, “cytometry (FACS).” for “cytometry.”

XF-498 = assay: Flow cytometry (FACS) of CR011 surface staining; assay type: binding, human
Description: as §3, with “CG56972” for “GPNMB”, “the” for “the cell”, “cytometry (FACS).” for “cytometry.”

[4] = mAb captured on protein A, GPNMB 880 nM, 1:1 kinetic model

B1: Mab1.15.1 (protein, listed as Homo sapiens)
chain: QVQLQESGPGLVKPSQTLSLTCTVSGGSISSFNYYWSWIRHHPGKGLEWIGYIYYSGSTYSNPSLKSRVTISVDTSKNQFSLTLSSVTAADTAVYYCARGYNWNYFDYWGQGTLVTVSSA
binding to GPNMB (GPNMB; 1:25 dilution of cell supernatant): strong binding | Kd (GPNMB; [4]): 0.052 µM | ka (GPNMB; [4]): 16524 M⁻¹ s⁻¹ | kd (GPNMB; [4]): 0.000855 s⁻¹ | effect on growth of all the melanoma cell lines tested (melanoma cell lines): no effect on growth | % G1 (SK-Mel-2 cells [1]): 63.6% | % G2/M (SK-Mel-2 cells [1]): 6.4% | % S-phase (SK-Mel-2 cells [1]): 25.2% | % Sub-G1 (SK-Mel-2 cells [1]): 0.5% | % G1 (TK-10 cells): 42.0% | % G2/M (TK-10 cells): 6.3% | % S-phase (TK-10 cells): 39.8% | % Sub-G1 (TK-10 cells): 0.3% | cell surface staining (SK-Mel-2 cells [2]): strong cell surface staining | growth of CG56972-expressing cancer cells ([3]; combined with saporin-conjugated secondary antibody): could specifically inhibit the growth | effect on CG56972 expressing cells / growth, naked antibody [3]: no effect | effect on CG56972 expressing cells / growth, naked antibody ([3]; listed as CR011): did not inhibit the growth | surface staining above control mAb background (SF-268): around 1.5 fold | surface staining above isotype control mAb background (SF-539): at least 1.5 fold | surface staining above isotype control mAb background (SNB-78): at least 1.5 fold | surface staining above isotype control mAb background (U-118-MG): at least 1.5 fold | surface staining above isotype control mAb background (XF-498): at least 1.5 fold
